The values below come from patent US20100233191A1.

The target in this experiment is MPP1 (proaerolysin with the furin site replaced by the PSA substrate HSSKLQ) (Aeromonas hydrophila) (UniProt P09167). In words: cell-based or functional assay.

Substance “Prostate-specific antigen (PSA), also referred as hK3 (from UniProt P07288 25-261) (enzyme)” had an LD50 (cell killing, Trypan Blue exclusion, PSA-producing LNCaP cells, 24 h) of 100 pM and a fold difference in toxicity, PSA-producing versus non-PSA producing cells of 500 fold.
